Test in all cases: EMSA
Common to all, as to details: EMSA: 5 nM pUC19, 30 min at room temperature, pH 7.0, 50 mM MOPS/50 mM NaCl (low) or 200 mM MOPS/200 mM NaCl (high); 1% agarose in TAE

Data set [1] has as its system EncA encapsulin shell (Myxococcus xanthus).
The subject of data set [2] is EncA encapsulin shell;EncC cargo protein (Myxococcus xanthus;Myxococcus xanthus).
Data set [3] relates to EncA encapsulin shell (Myxococcus xanthus). The source holds these as a separate data set.
Data set [4] concerns EncA encapsulin shell;EncC cargo protein (Myxococcus xanthus;Myxococcus xanthus). The source holds these as a separate data set.

We go through one substance from PMC9321382.

Turning to pUC19 supercoiled plasmid, the Kd in data set [1] came out at 300 nM; in data set [2], 400 nM; in data set [3] it was 300 nM; in data set [4], 300 nM.
